Data on two molecules can be found in patent publication US20210221894A1 (DRAGONFLY THERAPEUTICS, published 2021).

In general, EC50 refers to the midpoint of the concentration-response curve. The term EC50 (read off the curve) denotes the midpoint of the concentration-response curve.

The target in test [1] is T1, recombinant human DLL1 (human, UniProt O00548 18-540, limits assumed).
T1 sequence (looked up): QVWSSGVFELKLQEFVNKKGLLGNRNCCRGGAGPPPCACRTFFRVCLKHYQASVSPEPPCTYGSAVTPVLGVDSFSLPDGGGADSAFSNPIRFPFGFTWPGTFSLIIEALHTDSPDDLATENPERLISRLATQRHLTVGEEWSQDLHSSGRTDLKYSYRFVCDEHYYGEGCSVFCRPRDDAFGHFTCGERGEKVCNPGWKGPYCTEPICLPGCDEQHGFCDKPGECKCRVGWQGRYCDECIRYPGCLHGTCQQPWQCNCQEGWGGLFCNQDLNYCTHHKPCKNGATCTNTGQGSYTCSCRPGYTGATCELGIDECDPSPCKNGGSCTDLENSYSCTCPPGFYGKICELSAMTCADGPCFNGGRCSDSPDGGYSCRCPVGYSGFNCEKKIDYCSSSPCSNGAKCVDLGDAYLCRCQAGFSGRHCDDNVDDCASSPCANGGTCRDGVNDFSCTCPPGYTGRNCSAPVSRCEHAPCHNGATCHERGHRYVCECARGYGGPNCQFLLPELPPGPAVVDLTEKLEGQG
As to the kind of experiment: ELISA, plate-bound recombinant human DLL1 (1 µg/mL), anti-mouse IgG-HRP/TMB, % of positive control max. On the procedure: (§1) To investigate the binding of anti-DLL3 antibodies to human DLL3, wells of high binding flat-bottom plates were coated with recombinant human DLL3 diluted to 0.5 μg/ml. To assess cross-reactivity of the antibodies to DLL1/DLL4, which are closely related family members to DLL3, plates were coated with recombinant human DLL1 diluted to 1 μg/ml, or human DLL4 diluted to 0.5 μg/ml. […] Binding was detected using anti-mouse IgG-HRP and 3,3′,5,5′-Tetramethylbenzidine (TMB) substrate. Signals were normalized to the corresponding positive control antibody.
A general note: In an ELISA, binding on a coated surface is turned into a signal by an enzyme label.

In test [2] the target is T2, recombinant human DLL3 (ELISA coat) (human, UniProt Q9NYJ7 27-492).
T2 sequence: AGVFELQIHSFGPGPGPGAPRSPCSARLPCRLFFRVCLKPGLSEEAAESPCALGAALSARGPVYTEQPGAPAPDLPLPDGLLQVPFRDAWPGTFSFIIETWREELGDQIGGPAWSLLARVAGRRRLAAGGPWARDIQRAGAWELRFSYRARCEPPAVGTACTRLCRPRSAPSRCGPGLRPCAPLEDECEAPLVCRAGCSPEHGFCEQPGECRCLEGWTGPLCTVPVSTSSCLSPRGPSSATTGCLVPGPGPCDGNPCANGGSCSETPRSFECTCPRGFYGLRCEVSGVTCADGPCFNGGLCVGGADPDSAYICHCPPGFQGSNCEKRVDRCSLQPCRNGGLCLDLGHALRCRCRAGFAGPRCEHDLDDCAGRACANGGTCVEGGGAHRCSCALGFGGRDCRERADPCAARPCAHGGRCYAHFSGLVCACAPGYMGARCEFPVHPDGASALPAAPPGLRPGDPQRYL
Description: ELISA, plate coated with recombinant human DLL3 0.5 µg/ml, anti-mouse IgG-HRP. As to the method: as §1
Table 38 lists the calculated EC₅₀ based on the binding data from FIG. 24.

The target in test [3] is recombinant human DLL4 (human, UniProt Q9NR61 27-524, limits assumed). As to the kind of experiment: ELISA, plate-bound recombinant human DLL4 (0.5 µg/mL), anti-mouse IgG-HRP/TMB, % of positive control max. On the procedure:
as §1

Test [4] has as its target T3, recombinant cynomolgus NKG2D-Fc fusion protein (cynomolgus; human, UniProt P61252 73-216).
T3 construct: extracellular domain; not shown: human IgG1 Fc domain
T3 sequence (looked up): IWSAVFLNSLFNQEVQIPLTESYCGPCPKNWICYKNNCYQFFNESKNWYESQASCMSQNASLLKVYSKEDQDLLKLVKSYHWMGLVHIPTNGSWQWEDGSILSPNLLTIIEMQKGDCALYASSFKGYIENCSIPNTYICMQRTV
As to the kind of experiment: ELISA, plate-bound recombinant cynomolgus NKG2D-Fc, anti-human kappa-HRP/TMB. From the text: (§2) The nucleic acid sequences of human, mouse or cynomolgus NKG2D ectodomains were fused with nucleic acid sequences encoding human IgG1 Fc domains and introduced into mammalian cells to be expressed. After purification, NKG2D-Fc fusion proteins were adsorbed to wells of microplates. After blocking the wells with bovine serum albumin to prevent non-specific binding, NKG2D-binding domains were titrated and added to the wells pre-adsorbed with NKG2D-Fc fusion proteins. Primary antibody binding was detected using a secondary antibody which was conjugated to horseradish peroxidase and specifically recognizes a human kappa light chain to avoid Fc cross-reactivity. 3,3′,5,5′-Tetramethylbenzidine (TMB), a substrate for horseradish peroxidase, was added to the wells to visualize the binding signal, whose absorbance was measured at 450 nm and corrected at […]. An NKG2D-binding domain clone, an isotype control or a positive control (comprising heavy chain and light chain variable domains selected from SEQ ID NOs:101-104, or anti-mouse NKG2D clones MI-6 and CX-5, eBioscience, San Diego, Calif.) was added to each well.

Test [5] concerns the target T4, recombinant human NKG2D-Fc fusion protein (human, UniProt P26718 73-216).
T4 construct: extracellular domain; also called NKG2D-Fc-biotin; not shown: human IgG1 Fc domain
T4 sequence (looked up): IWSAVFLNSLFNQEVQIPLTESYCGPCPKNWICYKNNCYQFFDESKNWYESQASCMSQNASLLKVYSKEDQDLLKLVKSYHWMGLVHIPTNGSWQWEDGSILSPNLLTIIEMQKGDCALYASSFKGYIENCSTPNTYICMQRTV
Description: competition ELISA: plate-bound human NKG2D-Fc, saturating ULBP-6-His-biotin as blocked ligand, streptavidin-HRP. As to the method:
Recombinant human NKG2D-Fc proteins were adsorbed to wells of a microplate, and the wells were blocked with bovine serum albumin to reduce non-specific binding. A saturating concentration of ULBP-6-His-biotin was added to the wells, followed by addition of the NKG2D-binding domain clones. After a 2-hour incubation, wells were washed and ULBP-6-His-biotin that remained bound to the NKG2D-Fc coated wells was detected by streptavidin-conjugated to horseradish peroxidase and TMB substrate. Absorbance was measured at 450 nm and corrected at […]. After subtracting background, specific binding of NKG2D-binding domains to the NKG2D-Fc proteins was calculated from the percentage of ULBP-6-His-biotin that was blocked from binding to the NKG2D-Fc proteins in wells.

The target in test [6] is T5, recombinant mouse NKG2D-Fc fusion protein (mouse; human, UniProt O54709 90-232).
T5 construct: extracellular domain; also called Mouse NKG2D-Fc-biotin; not shown: human IgG1 Fc domain
T5 sequence (looked up): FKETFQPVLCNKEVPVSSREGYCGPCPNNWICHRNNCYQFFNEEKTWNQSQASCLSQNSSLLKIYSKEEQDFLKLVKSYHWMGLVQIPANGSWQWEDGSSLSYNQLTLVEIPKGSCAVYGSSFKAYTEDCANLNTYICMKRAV
Description: ELISA, plate-bound recombinant mouse NKG2D-Fc, anti-human kappa-HRP/TMB.
Description: as §2

The target in test [7] is T5, recombinant mouse NKG2D-Fc fusion …. As to the kind of experiment: competition ELISA: plate-bound mouse Rae-1 delta-Fc, mouse NKG2D-Fc-biotin in solution; blocked ligand Rae-1 delta. On the procedure:
Recombinant mouse Rae-1 delta-Fc (R&D Systems, Minneapolis, Minn.) was adsorbed to wells of a microplate, and the wells were blocked with bovine serum albumin to reduce non-specific binding. Mouse NKG2D-Fc-biotin was added to the wells followed by NKG2D-binding domains. After incubation and washing, NKG2D-Fc-biotin that remained bound to Rae-1delta-Fc coated wells was detected using streptavidin-HRP and TMB substrate. Absorbance was measured at 450 nm and corrected at […]. After subtracting background, specific binding of NKG2D-binding domains to the NKG2D-Fc proteins was calculated from the percentage of NKG2D-Fc-biotin that was blocked from binding to the Rae-1delta-Fc coated wells.

For test [8], the target named is T4, recombinant human NKG2D-Fc fusion …. As to the kind of experiment: ELISA, plate-bound recombinant human NKG2D-Fc, anti-human kappa-HRP/TMB.
Description: as §2

Sequence of recombinant human DLL4 (Q9NR61 27-524 limits assumed): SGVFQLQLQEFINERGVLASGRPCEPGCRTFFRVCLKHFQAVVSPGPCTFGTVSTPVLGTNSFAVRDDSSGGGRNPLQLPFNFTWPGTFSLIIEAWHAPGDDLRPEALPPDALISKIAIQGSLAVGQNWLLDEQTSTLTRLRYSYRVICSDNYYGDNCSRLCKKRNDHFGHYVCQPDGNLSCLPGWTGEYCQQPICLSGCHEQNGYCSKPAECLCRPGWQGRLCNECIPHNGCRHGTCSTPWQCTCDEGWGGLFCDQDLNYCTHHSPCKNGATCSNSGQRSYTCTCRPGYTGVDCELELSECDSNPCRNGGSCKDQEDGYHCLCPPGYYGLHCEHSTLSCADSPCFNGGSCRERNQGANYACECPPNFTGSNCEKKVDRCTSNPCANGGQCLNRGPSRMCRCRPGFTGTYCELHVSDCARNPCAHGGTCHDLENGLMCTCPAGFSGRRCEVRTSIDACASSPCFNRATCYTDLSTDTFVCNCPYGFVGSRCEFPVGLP

B1: anti-DLL3 antibody clone 2H6 (antibody, V domains shown)
VH: QIQLVQSGPELKKPGETVKISCKASGYTFTTYGVNWVKQAPGKGLKWMGWINTYSGVPTYADDFKGRFAFSLETIATTAYLQINNLKNEDTATYFCARFGNYGFDYWGQGTTLTVSS
VL: DIVMTQSPSSLSVSAGEKVTMSCKSSQSLVNSGNQKNYLAWYQQKPGQPPKLLISGASTRESGVPDRFTGSGSGTDFTLTISSVQAEDLAVYYCQNDHNYPYTFGGGTKLEIK
notes: Murine antibody from a mouse hybridoma
For B1, the binding result in test [1] and in test [3] was “no binding” each time. Moreover, the half-maximal effective concentration (EC50) in test [2] was 0.06 nM.

B2: ADI-27740 (antibody, V domains shown)
VH: QVQLQQWGAGLLKPSETLSLTCAVYGGSFSGYYWSWIRQPPGKGLEWIGEIDHSGSTNYNPSLKSRVTISVDTSKNQFSLKLSSVTAADTAVYYCARARGPWSFDPWGQGTLVTVSS
VL: DIQMTQSPSTLSASVGDRVTITCRASQSIGSWLAWYQQKPGKAPKLLIYKASSLESGVPSRFSGSGSGTEFTLTISSLQPDDFATYYCQQYHSFYTFGGGTKVEIK
notes: also called A40
For the molecule B2, the “EC50 (read off the curve)” value was ~0.3 nM in test [4], ~0.2 nM in test [6] and ~0.4 nM in test [8]. Also, the “IC50 (read off the curve)” value was ~6 nM in test [5] and ~20 nM in test [7].
